Results published in paper PMC6555819, “Comprehensive study of nuclear receptor DNA binding provides a revised framework for understanding receptor specificity”.

Legend:
THRa:RXRa = THRa:RXRa (Homo sapiens, UniProt P10827;P19793 full;full); assay: no ligand; PBM; 90 nM : 90 nM RXRa; PBS pH 7.4, 2% milk, 0.02% Triton X-100, 1 mM DTT, BSA, 0.4 mg/ml salmon testes DNA; conditions: tags: His kept;His cleaved; copies: 1;1; label: surface-attached array probe
VDR:RXRa = VDR:RXRa (Homo sapiens, UniProt P11473;P19793 full;full); assay: no ligand; PBM; 270 nM : 90 nM RXRa; PBS pH 7.4, 2% milk, 0.02% Triton X-100, 1 mM DTT, BSA, 0.4 mg/ml salmon testes DNA; conditions: tags: His kept;His cleaved; copies: 1;1; label: surface-attached array probe
Chain of VDR:RXRa (P11473 whole entry, chain 1 of 2): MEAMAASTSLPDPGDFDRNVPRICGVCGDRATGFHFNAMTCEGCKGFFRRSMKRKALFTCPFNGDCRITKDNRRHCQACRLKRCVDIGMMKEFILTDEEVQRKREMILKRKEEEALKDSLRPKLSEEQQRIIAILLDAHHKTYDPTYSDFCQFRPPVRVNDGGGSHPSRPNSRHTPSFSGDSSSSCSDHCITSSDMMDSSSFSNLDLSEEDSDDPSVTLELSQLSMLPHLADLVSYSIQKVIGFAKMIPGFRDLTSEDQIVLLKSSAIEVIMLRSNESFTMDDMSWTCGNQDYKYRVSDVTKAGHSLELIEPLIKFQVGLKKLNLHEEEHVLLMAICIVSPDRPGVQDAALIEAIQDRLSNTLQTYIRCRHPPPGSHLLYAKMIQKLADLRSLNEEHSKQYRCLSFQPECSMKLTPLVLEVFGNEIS
Chain of VDR:RXRa (P19793 whole entry, chain 2 of 2): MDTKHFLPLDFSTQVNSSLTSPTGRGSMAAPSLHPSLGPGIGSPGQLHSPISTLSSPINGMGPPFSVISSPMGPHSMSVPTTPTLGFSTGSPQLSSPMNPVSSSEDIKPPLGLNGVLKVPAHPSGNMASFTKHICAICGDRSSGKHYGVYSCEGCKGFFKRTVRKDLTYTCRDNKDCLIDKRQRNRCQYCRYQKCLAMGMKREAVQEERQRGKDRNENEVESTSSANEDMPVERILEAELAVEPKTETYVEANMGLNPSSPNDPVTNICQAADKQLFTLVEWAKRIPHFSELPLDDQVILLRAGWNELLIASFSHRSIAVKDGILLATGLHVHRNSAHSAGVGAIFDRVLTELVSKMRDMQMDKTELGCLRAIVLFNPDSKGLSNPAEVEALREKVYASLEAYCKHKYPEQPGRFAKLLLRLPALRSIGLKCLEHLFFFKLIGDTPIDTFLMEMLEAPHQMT
Procedure, shortened: (§1)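 Binding z-scores were set against random background probes. The data came from custom Agilent 4×180K protein-binding microarrays carrying double-stranded probes with 34-nt variable regions, incubated 1 h with ligand-free nuclear receptor dimers. Partner-specific antibodies detected binding, and scanned fluorescence was regression-normalized.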

FXR:RXRa = FXR:RXRa (Homo sapiens, UniProt Q96RI1;P19793 full;full); assay: as above; conditions: tags: His kept;His cleaved; copies: 1;1; label: surface-attached array probe
Chain of FXR:RXRa (Q96RI1 whole entry, chain 1 of 2): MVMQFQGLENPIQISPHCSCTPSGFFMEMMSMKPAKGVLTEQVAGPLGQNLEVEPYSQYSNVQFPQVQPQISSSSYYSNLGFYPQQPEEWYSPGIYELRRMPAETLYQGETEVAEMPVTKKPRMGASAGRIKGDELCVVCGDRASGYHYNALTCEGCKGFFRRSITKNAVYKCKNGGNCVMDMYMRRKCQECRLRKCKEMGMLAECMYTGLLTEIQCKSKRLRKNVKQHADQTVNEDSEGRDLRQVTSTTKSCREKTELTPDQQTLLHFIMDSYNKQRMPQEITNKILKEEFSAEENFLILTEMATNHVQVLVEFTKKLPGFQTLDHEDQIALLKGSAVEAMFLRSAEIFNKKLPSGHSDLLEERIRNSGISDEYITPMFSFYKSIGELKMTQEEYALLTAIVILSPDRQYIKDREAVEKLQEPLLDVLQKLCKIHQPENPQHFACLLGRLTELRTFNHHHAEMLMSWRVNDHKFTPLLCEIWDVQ
Chain of FXR:RXRa (P19793 whole entry, chain 2 of 2): as the sequence (P19793 whole entry, chain 2 of 2) above
Procedure, shortened: as §1

PXR:RXRa = PXR:RXRa (Homo sapiens, UniProt O75469;P19793 full;full); assay: as above; conditions: tags: His kept;His cleaved; copies: 1;1; label: surface-attached array probe
Chain of PXR:RXRa (O75469 whole entry, chain 1 of 2): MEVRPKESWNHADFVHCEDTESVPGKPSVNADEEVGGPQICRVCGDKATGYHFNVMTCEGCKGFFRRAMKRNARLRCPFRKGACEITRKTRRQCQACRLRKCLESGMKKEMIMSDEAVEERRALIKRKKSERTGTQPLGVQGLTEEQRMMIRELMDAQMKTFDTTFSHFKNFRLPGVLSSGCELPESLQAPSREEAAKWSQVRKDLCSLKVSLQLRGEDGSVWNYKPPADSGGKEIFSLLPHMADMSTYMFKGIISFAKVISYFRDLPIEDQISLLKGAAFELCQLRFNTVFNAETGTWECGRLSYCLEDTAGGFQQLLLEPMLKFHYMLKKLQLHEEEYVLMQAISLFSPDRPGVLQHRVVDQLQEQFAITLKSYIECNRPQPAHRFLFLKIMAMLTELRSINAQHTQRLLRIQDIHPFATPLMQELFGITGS
Chain of PXR:RXRa (P19793 whole entry, chain 2 of 2): as the sequence (P19793 whole entry, chain 2 of 2) above
Procedure, shortened: as §1

PPARg:RXRa = PPARg:RXRa (Homo sapiens, UniProt P37231;P19793 full;full); assay: no ligand; PBM; 180 nM : 90 nM RXRa; PBS pH 7.4, 2% milk, 0.02% Triton X-100, 1 mM DTT, BSA, 0.4 mg/ml salmon testes DNA; conditions: tags: His kept;His cleaved; copies: 1;1; label: surface-attached array probe
LXRb:RXRa = LXRb:RXRa (Homo sapiens, UniProt P55055;P19793 full;full); assay: no ligand; PBM; 270 nM : 90 nM RXRa; PBS pH 7.4, 2% milk, 0.02% Triton X-100, 1 mM DTT, BSA, 0.4 mg/ml salmon testes DNA; conditions: tags: His kept;His cleaved; copies: 1;1; label: surface-attached array probe
Chain of LXRb:RXRa (P55055 whole entry, chain 1 of 2): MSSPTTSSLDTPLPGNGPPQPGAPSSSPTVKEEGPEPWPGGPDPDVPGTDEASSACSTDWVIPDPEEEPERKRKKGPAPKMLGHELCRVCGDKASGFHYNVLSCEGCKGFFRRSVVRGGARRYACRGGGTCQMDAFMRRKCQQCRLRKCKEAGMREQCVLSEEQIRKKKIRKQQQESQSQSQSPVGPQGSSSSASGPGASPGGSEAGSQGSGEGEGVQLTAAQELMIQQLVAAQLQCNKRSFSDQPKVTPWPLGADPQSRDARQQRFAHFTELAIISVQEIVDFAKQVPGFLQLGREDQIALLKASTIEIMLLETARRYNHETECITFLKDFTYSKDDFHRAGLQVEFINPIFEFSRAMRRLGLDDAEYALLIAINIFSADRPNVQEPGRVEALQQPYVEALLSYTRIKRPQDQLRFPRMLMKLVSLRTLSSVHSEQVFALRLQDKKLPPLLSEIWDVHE
Chain of LXRb:RXRa (P19793 whole entry, chain 2 of 2): as the sequence (P19793 whole entry, chain 2 of 2) above
Procedure, shortened: as §1

RXRa = RXRa (Homo sapiens, UniProt P19793); assay: no ligand; PBM; 180 nM; PBS pH 7.4, 2% milk, 0.02% Triton X-100, 1 mM DTT, BSA, 0.4 mg/ml salmon testes DNA; conditions: tags: His cleaved; chain copies: 2; label: surface-attached array probe
RARb:RXRa = RARb:RXRa (Homo sapiens, UniProt P10826;P19793 full;full); assay: no ligand; PBM; 270 nM : 90 nM RXRa; PBS pH 7.4, 2% milk, 0.02% Triton X-100, 1 mM DTT, BSA, 0.4 mg/ml salmon testes DNA; conditions: tags: His kept;His cleaved; copies: 1;1; label: surface-attached array probe
Procedure, shortened: as §1

LXRa:RXRa = LXRa:RXRa (Homo sapiens, UniProt Q13133;P19793 full;full); assay: as above; conditions: tags: His kept;His cleaved; copies: 1;1; label: surface-attached array probe
Procedure, shortened: as §1

PPARa:RXRa = PPARa:RXRa (Homo sapiens, UniProt Q07869;P19793 full;full); assay: as above; conditions: tags: GST kept;His cleaved; copies: 1;1; label: surface-attached array probe
Procedure, shortened: as §1

RARg:RXRa = RARg:RXRa (Homo sapiens, UniProt P13631;P19793 full;full); assay: as above; conditions: tags: His kept;His cleaved; copies: 1;1; label: surface-attached array probe
Procedure, shortened: as §1

Chain of THRa:RXRa (P10827 other isoform, or with tags, fused parts or gaps, chain 1 of 2): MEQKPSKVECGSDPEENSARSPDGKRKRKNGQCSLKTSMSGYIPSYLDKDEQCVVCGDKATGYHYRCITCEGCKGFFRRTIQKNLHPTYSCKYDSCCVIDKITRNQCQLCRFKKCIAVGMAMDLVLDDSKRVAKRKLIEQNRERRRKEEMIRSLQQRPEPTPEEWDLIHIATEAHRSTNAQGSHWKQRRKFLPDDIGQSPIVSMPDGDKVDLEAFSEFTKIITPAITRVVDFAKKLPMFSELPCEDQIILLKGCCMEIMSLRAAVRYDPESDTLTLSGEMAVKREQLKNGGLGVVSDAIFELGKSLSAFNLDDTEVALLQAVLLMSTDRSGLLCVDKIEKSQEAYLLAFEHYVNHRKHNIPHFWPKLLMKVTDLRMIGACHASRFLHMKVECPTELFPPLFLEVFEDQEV
Chain of THRa:RXRa (P19793 whole entry, chain 2 of 2): as the sequence (P19793 whole entry, chain 2 of 2) above

Row | Binder | binding signal (THRa:RXRa) | binding signal (VDR:RXRa) | binding signal (FXR:RXRa) | binding signal (PXR:RXRa) | binding signal (PPARg:RXRa) | binding signal (LXRb:RXRa) | binding signal (RXRa) | binding signal (RARb:RXRa) | binding signal (LXRa:RXRa) | binding signal (PPARa:RXRa) | binding signal (RARg:RXRa)
1 | NRC3_wobSeed87_DR3_T8G_o1 (dsDNA) DNA 1: GCCGAACGAGGTCATCCAGGACAGTGAATACATTGAGCGATTGACAGCGTAGAATGAAGG DNA 2: CCTTCATTCTACGCTGTCAATCGCTCAATGTATTCACTGTCCTGGATGACCTCGTTCGGC | 4.78 PBM z-score against 500 random probes | 6.85 PBM z-score against 500 random probes | 8.44 PBM z-score against 500 random probes | 6.36 PBM z-score against 500 random probes |  |  |  |  |  |  | 
2 | NRC3_random_hg19_372_o1 (dsDNA) DNA 1: GCGAGGTTGCAGTGAGCCAAGATTGCACCACTGCACGCGATTGACAGCGTAGAATGAAGG DNA 2: CCTTCATTCTACGCTGTCAATCGCGTGCAGTGGTGCAATCTTGGCTCACTGCAACCTCGC | -0.05 PBM z-score against 500 random probes |  |  |  | -0.12 PBM z-score against 500 random probes |  |  |  |  |  | 
3 | NRC3_random_hg19_322_o1 (dsDNA) DNA 1: GCTGTAAAGTGGTCCACTGACAGCTTCCACTCTTCTGCGATTGACAGCGTAGAATGAAGG DNA 2: CCTTCATTCTACGCTGTCAATCGCAGAAGAGTGGAAGCTGTCAGTGGACCACTTTACAGC | -0.7 PBM z-score against 500 random probes | -0.74 PBM z-score against 500 random probes |  | -0.56 PBM z-score against 500 random probes |  | -0.71 PBM z-score against 500 random probes |  |  |  |  | 
4 | NRC3_wobSeed49_DR2_T8G_o1 (dsDNA) DNA 1: GCCAAACGAGGTCAAGAGGTCAAAGTCCGCTTCCCGGCGATTGACAGCGTAGAATGAAGG DNA 2: CCTTCATTCTACGCTGTCAATCGCCGGGAAGCGGACTTTGACCTCTTGACCTCGTTTGGC | 5.13 PBM z-score against 500 random probes | 7.24 PBM z-score against 500 random probes | 8.68 PBM z-score against 500 random probes | 7.24 PBM z-score against 500 random probes |  | 6.98 PBM z-score against 500 random probes | 9.6 PBM z-score against 500 random probes | 6.35 PBM z-score against 500 random probes | 7.08 PBM z-score against 500 random probes | 7.33 PBM z-score against 500 random probes | 9.13 PBM z-score against 500 random probes
5 | NRC3_wobSeed114_DR4_C22T_o1 (dsDNA) DNA 1: GCAATACAGGGTCATCGTAGGTCAGAGTACGCACAGGCGATTGACAGCGTAGAATGAAGG DNA 2: CCTTCATTCTACGCTGTCAATCGCCTGTGCGTACTCTGACCTACGATGACCCTGTATTGC | 5.25 PBM z-score against 500 random probes |  |  | 6.36 PBM z-score against 500 random probes |  | 6.24 PBM z-score against 500 random probes |  |  | 7.62 PBM z-score against 500 random probes |  | 
6 | NRC3_wobSeed97_DR4_A18G_o1 (dsDNA) DNA 1: GCCAAACTAGGTCACGAGAGGTCAAAGTCGAATGACGCGATTGACAGCGTAGAATGAAGG DNA 2: CCTTCATTCTACGCTGTCAATCGCGTCATTCGACTTTGACCTCTCGTGACCTAGTTTGGC | 5.49 PBM z-score against 500 random probes | 7.3 PBM z-score against 500 random probes | 7.96 PBM z-score against 500 random probes | 7.59 PBM z-score against 500 random probes |  |  |  |  |  |  | 
7 | NRC3_wobSeed119_DR4_G23C_o1 (dsDNA) DNA 1: GCGGAACGAGGGCATTCGAGTTCATAGCATGGCGATGCGATTGACAGCGTAGAATGAAGG DNA 2: CCTTCATTCTACGCTGTCAATCGCATCGCCATGCTATGAACTCGAATGCCCTCGTTCCGC | 4.79 PBM z-score against 500 random probes | 7.03 PBM z-score against 500 random probes |  | 7.11 PBM z-score against 500 random probes |  |  |  |  | 6.87 PBM z-score against 500 random probes |  | 
8 | NRC3_random_hg19_419_o1 (dsDNA) DNA 1: GCAGAGCAGACTTCCTGTGTATGTTAGGATGAAACCGCGATTGACAGCGTAGAATGAAGG DNA 2: CCTTCATTCTACGCTGTCAATCGCGGTTTCATCCTAACATACACAGGAAGTCTGCTCTGC | -0.56 PBM z-score against 500 random probes |  | -0.65 PBM z-score against 500 random probes | -0.62 PBM z-score against 500 random probes |  |  |  |  | -0.87 PBM z-score against 500 random probes |  | 
9 | NRC3_wobSeed113_DR4_G15A_o1 (dsDNA) DNA 1: GCATATGTAGGTTAACTGGGGTCATTCAGACTAGGCGCGATTGACAGCGTAGAATGAAGG DNA 2: CCTTCATTCTACGCTGTCAATCGCGCCTAGTCTGAATGACCCCAGTTAACCTACATATGC | 5.49 PBM z-score against 500 random probes | 7.19 PBM z-score against 500 random probes |  | 6.99 PBM z-score against 500 random probes |  | 6.88 PBM z-score against 500 random probes |  |  | 7.87 PBM z-score against 500 random probes |  | 
